{"source": "the domain aggregation screens of Martell et al. (2025)"}
{"experiment": "soluble fraction after stress (log2 fold change); higher = more stays soluble; pooled small domains, quantitative proteomics", "conditions": "stress: pH 4", "in_short": "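Aggregation propensity here comes from the fold change in the soluble amount of each small protein domain after acid stress, measured in pooled custom libraries by high-throughput quantitative proteomics. The acid stress was pH 4. On the log2 scale, higher values mean more of the domain stayed soluble.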"}
{"sequence": "HMGMTAPIPGVVLKVSVLPGQKVERGDELLTIEAMKMFNVMRSPSSGTIATVHIKDGDRVVQGQPLVTFA", "soluble fraction (log2)": 0.113}
{"sequence": "HMGMTTSILDDVIGMGPKRKKALLKAFGSFGALRNATLEEIKQTHTVPEQVAEDVYAVLVQYNSKSE", "soluble fraction (log2)": -0.171}
{"sequence": "HMGMVKLNEEYLEKVKKHRKELHITQLQISKKLGWSLSRYQRFESGFYKEIEDDAPKKIKEEFGIDYSLL", "soluble fraction (log2)": -0.231}
{"sequence": "HMGNGALLTLTVKERQVIQLVAEGKSNKQIARDLNVTPETIKSHMKNIFAKLKVDNRAQAAVMVQQ", "soluble fraction (log2)": 0.0874}
{"sequence": "HMGNGDTNERIATLMQILAKQESIINQYGLENPVVSPQMYVRTLKKVVELSGFKDASSYFADIPDGWKA", "soluble fraction (log2)": 0.0699}
{"sequence": "HMGNIADARRDASYVFLIGEWAKSSNLTEKKLAGLIQSNHLDIKYGITVTDVIADIRKYKNDPTYNPF", "soluble fraction (log2)": 0.312}
{"sequence": "HMGNIKVPSVMGMTLEGAEKVAKDNGAVIEVLEYKESTEEDGTIIEQSPKADMTVATLEKISVVISGK", "soluble fraction (log2)": 0.0995}
{"sequence": "HMGNIYKALLGKLEKQLGFLPEGTKLPPEQELAEKFGVSKPTLRRALAELAVRGIIVKQNGIGSVVAGS", "soluble fraction (log2)": "≥ 0.43"}
{"sequence": "HMGNKKLVLKLSKKLIKIPSFLNIYSVKLTKNGRELEINLDKSQNEAIDIINLIKKNNISFLEFDIKKR", "soluble fraction (log2)": 0.015}
{"sequence": "HMGNLIIFYDAQTGSAPLLKAVKTSGATLVYEYKNLHGIAIRPSSKTSIEDAIAYFKKVNGVLSVE", "soluble fraction (log2)": 0.0783}
{"sequence": "HMGNPSGLPLPRFASTRSEPINVRVGPGQKYDIAWTYLKSGIPVEIIQEFDTWRKIRDFDGAEGWIHQNLL", "soluble fraction (log2)": -0.398}
{"sequence": "HMGNSRNDQDLQTQIIKILAEGPASSRTLIETLTIEDEAALLKTLKRLLMNKKISLTPSNLYKL", "soluble fraction (log2)": -0.66}
{"sequence": "HMGPAAGVVEKYNLAHLSTGEMIRKEIAEGSDFGKMAAGIINKGELLSDEFVVALIENSIEHHKNVDGFLF", "soluble fraction (log2)": -0.22}
{"sequence": "HMGPAVGAIRVEGNKRVEPETVRTYLTFNVGDPYDLAKVDESLKALFATGLFQDVRIRREGNTVVIVVVEN", "soluble fraction (log2)": -1.07}
{"sequence": "HMGPAYQTQRQEAFAALSEIAAKNPQLMQVAGDLVFRAADFPMADELADRLAKTLPPQLQDKKGQP", "soluble fraction (log2)": -0.313}
{"sequence": "HMGPEISEDAKVVFDRLKNHDEILLNNFKSEFDLSNKKWDKIIKELRGNDLISIIKSEDGNLFIKP", "soluble fraction (log2)": -0.293}
{"sequence": "HMGPELGENEKLIFDIIKKESKMELGILKAQVDLSNKKWDKALKGLATHGLTKVNKTDDGLFIELI", "soluble fraction (log2)": -0.942}
{"sequence": "HMGPIITKTYNLSYATARDVNDIIKSKKSARGDIVIDTRTNSLIVSDVQEKIDLIDEIVATL", "soluble fraction (log2)": -1.37}
{"sequence": "HMGPLSDRSVADWLLRLGLADTANNRLLLQVMHAAGLPLERTAVRAMRETAAGRPEGTDAREWLQAAAAAQ", "soluble fraction (log2)": -0.326}
{"sequence": "HMGPNSVPDLRGKSLRQAMKMVNDLELKAIFEGEGIVVGQVPAPGKPVPETKILKITLSLEPY", "soluble fraction (log2)": 0.0736}
{"sequence": "HMGPPAVGSKLQDARKAQQLSLDELSKRAGVSKSMLSEVERNQANPTVGVLWRLATALGISLTDLLG", "soluble fraction (log2)": -0.549}
{"sequence": "HMGPPLISLDDGLAKGFGVGVGDTLTINILGRRITATIASLREIDWQSLRFDFAVVLSPGVLEGA", "soluble fraction (log2)": 0.063}
{"sequence": "HMGPRKAGSEATRQKILDAAEILFAERGFHSVSVRDITTEAGVDVALINYHFGSKQLLFETVFMRR", "soluble fraction (log2)": -0.472}
{"sequence": "HMGPRPLPAEFTHPSLRALLALGTTRGGVTSADVKTALEAASVPAGRRAAVLRALDDNGIEVHTEP", "soluble fraction (log2)": 0.107}
{"sequence": "HMGPSEVTLDNFVGKNYTDVVNDTSYQFTFKKEEKSDQTHAAGIIIAQSPKKGIKVKSNSTVTLTVSTG", "soluble fraction (log2)": 0.216}
{"sequence": "HMGPVDFYQMFISELQHLAEKPVTVDALIESTQLHKSQLTEWLKRAVDDGVVKKLNRPARFQVKNK", "soluble fraction (log2)": 0.136}
{"sequence": "HMGPVRDLGLLESAAHRPTTALWGRDVYATIEKKAAALLDSLVRDRPLADGNKRLGWLAALV", "soluble fraction (log2)": 0.0116}
{"sequence": "HMGPYGAGSAAPAEDGSGPEGWTVKGNAKSMLYHTEGSPYYGRTNADVWFRDEESAEAAGFRRWDRK", "soluble fraction (log2)": 0.033}
{"sequence": "HMGQAELPYSEFLREVNNGQVKSVIIEGSEITGFYKTSGTSFNVIAPDDPKLVERLMAQGVEVRAQPA", "soluble fraction (log2)": 0.239}
{"sequence": "HMGQDLEAFLLKAVGQLDQGDGVTLDALLKVAVSNGGFVREVAEAKLDDMLDAGTLDEPRFGWFRVGAT", "soluble fraction (log2)": -1.68}
{"sequence": "HMGQDLSYYIKIVQNQQPVDPLTGEPKVLDYGEVIRQAQILQMLDTGDLDRDKAIGQLSMKDAL", "soluble fraction (log2)": -0.26}
{"sequence": "HMGQELRFVIQDHEAGIRLDHYLTQQVEGYSRSHLRKLMDQGLITVDGSYRKAGYRLNVGDVIHVVIPPTR", "soluble fraction (log2)": -0.0619}
{"sequence": "HMGQELTPVERTALDIAARDGKVSTRILAQEAGIGLRTASKTLAALAERGLLTWHGTSRRDPQQHYTS", "soluble fraction (log2)": 0.154}
{"sequence": "HMGQISDESVLKEMVVQLIADNPKEVASYLGGKETLLQWFMGQVARATKGKADPQAVKQLLLDEFEKLK", "soluble fraction (log2)": -0.504}
{"sequence": "HMGQKETIVDLLKTNGTMTQLALAEAIYGDKNHGPNIYSVLMGRVNSGAVLRTGSQPAYYSLSG", "soluble fraction (log2)": 0.22}
{"sequence": "HMGQKMLTIELQEKVNKMPDNLASYDLKLSADGMSLIYKYSLKSERTGITALLQELKNAGLVMRDLKTEQ", "soluble fraction (log2)": -0.302}
{"sequence": "HMGQLSDREALTVLAREALVELPRAAGDYRNGRTAALQSLVGRVMRKTAGRGNPALLQEIFRSLL", "soluble fraction (log2)": 0.00453}
{"sequence": "HMGQLVVHQIKGEASRLDKFLVVNIPKYSRSVWREMINNGSVQVNGRVVKPHLLVKEGDIITWSS", "soluble fraction (log2)": 0.0267}
{"sequence": "HMGQLVYPAGVYDVNKSYITDSNSAPYVLDKTDNNYYVLNTQMTWKGTEQDNKTPSQSYEESGGSVWLLFD", "soluble fraction (log2)": -0.59}
{"sequence": "HMGQPAVSSRDVAEQFGKEHRNVIQSIKNLIAENSALTFMFIEDTYTAGTGKKYPMYYMNRDGFTLLA", "soluble fraction (log2)": -0.15}
{"sequence": "HMGQPGNWTSYVFKNSDTEPAKPTSSGPIPSGWNDAPTGVGIWWMSKATIDASTGKAGSWSTPIRVTGED", "soluble fraction (log2)": 0.0155}
{"sequence": "HMGQSKNERMLELVELLNKASRSYYQDAQEIMSNYEYDRLYDELQNLEKELGITLSNSPTVN", "soluble fraction (log2)": -1.3}
{"sequence": "HMGQVSDETGLARVVDALLAAHPDEVAKYRAGKTSLLGWFMGQVMKETRGQANPDLARALVLERLE", "soluble fraction (log2)": -0.269}
{"sequence": "HMGQYSTTLDKIENSLFGFTYSNEAENTRINRIENKVYGKTSTSQTSTRIAKLKKDLSVDEMG", "soluble fraction (log2)": -0.00491}
{"sequence": "HMGREVVVPNLAGIEKEVALDLLKKNRLGGMITGTRFSSDFPAGQVIQQMPEAGSRVKVGKQVKLVLSEG", "soluble fraction (log2)": 0.334}
{"sequence": "HMGRGSEDEQMRGLAVILAEQKQIMQTLGVENEVVKPEQYINTLKRMAELNGFKDTDQFFSIPQ", "soluble fraction (log2)": -0.587}
{"sequence": "HMGRHSPLSIEQKEQLKTEIVALQQQRGGGRVTAVNIAELIQQKFNVVYNPNSLYKLLKQIGMSWV", "soluble fraction (log2)": -0.311}
{"sequence": "HMGRKEIIVPNLLGKYAIEAGTILKNAGLLEGQAREENSDTYPAGQIMDQFPKANTPANENDKVDYVVSI", "soluble fraction (log2)": -0.202}
{"sequence": "HMGRLEVDLVVPYDKYEAMNVIRAEGRILKEDHQGDGAHLKIQINETALWKLKRMLGEGYGQ", "soluble fraction (log2)": -0.255}
{"sequence": "HMGRLPMNIVRAIVEHLDRHASYSEINRATGASKGFISKVAAAVEAASLTPEKFLLLNDEDIQNRITPGR", "soluble fraction (log2)": -0.133}
{"sequence": "HMGRPTLEQLLDRAQAMGVPRERYAAYADRRWGRGWRVNPHGRGRAWDELDRYRNDPAGYLDKIEVELNQL", "soluble fraction (log2)": -0.0109}
{"sequence": "HMGRQVTVPNVTGMLVEEARAAISEAELWVDSPRAVQGEVTRQEPARGERLSPGQEVRIYTES", "soluble fraction (log2)": -0.568}
{"sequence": "HMGRRSKAMLSSALDAVPGLGEMRRKALISQFGSLKKLRGATPEEIAAVPGIGPKLAAAVHEAVSG", "soluble fraction (log2)": 0.131}
{"sequence": "HMGRSTQVPGVEKMTYSQAVQLLHDHGFRVDIRDSLYRDDIKPGHVIEQFPKAKSIVKPGRKIFLYINAV", "soluble fraction (log2)": 0.105}
{"sequence": "HMGRTGTVVVSPSLNVRTGPWGEIIGSLYNGNKVEIIGSSGDWYQISFGGKTAYVHSDYVVDGG", "soluble fraction (log2)": -0.779}
{"sequence": "HMGSDAFDISKLNLVGKTKESAESLLKENGFSVDTKEEASDTAAKGTVISYSPTKPKNGERVTLTVSSGK", "soluble fraction (log2)": 0.243}
{"sequence": "HMGSDQEAAMARQDRLSTLVDYVVERGSVHVDDIVADLGVSPATVRRDLDALAAQQLIIRTRGGATANHT", "soluble fraction (log2)": -0.552}
{"sequence": "HMGSGKGAAHTILGISADASDDEIKAAWRKLVQENHPDKLVSQGLPDEFVQAATDRLRLINTAYQSMLNRP", "soluble fraction (log2)": -0.328}
{"sequence": "HMGSGLAAAEKIRKAHPEIKIVVATSLIDTQVLARAKAVGADSLWYKDGDEGTLMQVVRRTMAGDHIFP", "soluble fraction (log2)": -0.366}
{"sequence": "HMGSIGAMLSSPELYGKLATNPATRGFLSQPDFIAMLTDVQKNPDKFGSYMSDPRMMQVLSVALG", "soluble fraction (log2)": -0.103}
{"sequence": "HMGSIRDIIVQYLSKFDDPQPAAKIVEYVQQYRDTTESSIRSSMGSGDQFVQFSGGLYGLKDKTYAAWYSI", "soluble fraction (log2)": -0.383}
{"sequence": "HMGSLKISNPVKDTLWIQGVDGLKSIEIYSSTGQLVKTILGNQGDVSSLPKGVYFLKINTPSESLTAKIIK", "soluble fraction (log2)": "≥ 0.43"}
{"sequence": "HMGSLPPPKDGTTIYVVKPGDSLWRISGKFFGNPLFWPRLWEINPNIDNPNKIYPGDVISLKP", "soluble fraction (log2)": 0.219}
{"sequence": "HMGSLVKLQSAAELHQAGRSAEAVPILLEVLATNPRLVDGWEILANALEKLGRLDEALAALKKTVALSPPG", "soluble fraction (log2)": -1.23}
{"sequence": "HMGSNENTIREYFDSLIASASKREIMDANPTMSQRTVERILQKLQAEGYVEKIGAARSTRYRRA", "soluble fraction (log2)": -0.0919}
{"sequence": "HMGSQLYTLEVEADEKISLIENNPLLIQKIYLKDNNLFSYKIASSSKTEIASIEKELEKNPSIKRLETA", "soluble fraction (log2)": -0.502}
{"sequence": "HMGSQQIEEGMRRLVASGALRPGASVPSVRDLARDLQVNPATVVRAYQRLVDAGLLVVRRGEGTFVAE", "soluble fraction (log2)": -0.103}
{"sequence": "HMGSSLLSPKEREVLQLLAGNLSNKQIALAMGVSDETIKWHLRNLFGKLNAGGRKHLIDRARMLGLLAAA", "soluble fraction (log2)": -0.153}
{"sequence": "HMGSVHDAATDRIREMILGGQFEPGERLRQDDLATSLGVSTMPVREALRQLQAEGLVVFYPRKGAVVAR", "soluble fraction (log2)": -0.173}
